Experimental findings from patent US20230391876A1 (HANALL BIOPHARMA, published 2023) are described below.

Experiment [1] concerns the target T1, shFcRn (soluble human FcRn) (human, UniProt P55899 24-297; P61769 21-119).
T1 construct: extracellular domain; Printed only as 'soluble human FcRn'; also called hFcRn (immobilized on a chip)
In words: SPR, hFcRn immobilized on chip, pH 7.4.
Procedure: (§1) Kinetic analysis was performed using a 1:1 Langmuir binding model, and the average KD value was obtained by repeating the analysis 6 times in each condition of pH 6.0 and pH 7.4.
(§2) Chip activation was performed under EDAC/NHS 0.5×, 30 μL/min, and 300 sec conditions. Thereafter, shFcRn was prepared at 2 μg/mL, 250 μL using an acetate buffer (pH 5.5), and immobilization was performed while flowing at 30 μL/min. The reaction was stopped when the immobilization level corresponded to 200 RU to 300 RU. Thereafter, deactivation was performed using ethanolamine at 30 μL/min, 300 sec. […] Sample dilution was performed using 1×PBST (pH 7.4) or 1×PBST (pH 6.0) buffer depending on the analysis pH. In the sample analysis conditions, association was carried out by reaction at 50 μL/min, 200 sec, and dissociation was carried out by reaction at 50 μL/min, 600 sec. Thereafter, reaction was carried out using a glycine buffer (pH 2.0) at 100 μL/min, 18 sec to perform regeneration. For kinetic analysis, samples were prepared and reacted once in three cells to which shFcRn was immobilized. Then three kinetic values were obtained, and then an average KD value was measured. When analyzing reaction signals, interspot-referencing and signals in which only buffer was analyzed were used for a double-referencing.

The target of experiment [2] is T2, hFcRn on hFcRn-expressing HEK293 cells (human, UniProt P55899 24-365; P61769 21-119).
T2 construct: whole, on cells; also called hFcRn HEK293
T2 sequence (P55899 24-365 limits assumed, chain 1 of 2): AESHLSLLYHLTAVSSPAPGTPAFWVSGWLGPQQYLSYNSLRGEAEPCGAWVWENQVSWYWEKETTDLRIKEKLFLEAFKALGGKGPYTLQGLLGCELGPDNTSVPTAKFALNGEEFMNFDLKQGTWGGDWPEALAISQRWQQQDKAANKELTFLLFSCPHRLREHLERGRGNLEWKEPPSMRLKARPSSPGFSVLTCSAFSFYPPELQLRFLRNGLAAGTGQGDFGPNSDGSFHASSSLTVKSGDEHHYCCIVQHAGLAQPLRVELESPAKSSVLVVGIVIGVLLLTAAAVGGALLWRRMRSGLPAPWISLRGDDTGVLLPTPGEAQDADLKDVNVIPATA
T2 sequence (P61769 21-119 limits assumed, chain 2 of 2): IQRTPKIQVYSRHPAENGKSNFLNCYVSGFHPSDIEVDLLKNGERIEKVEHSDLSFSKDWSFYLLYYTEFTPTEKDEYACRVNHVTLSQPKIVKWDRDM
The experiment in a line: FACS on hFcRn HEK293 cells, 10 nM antibody, pH 6.0.
Procedure: (§3) The analysis of hFcRn binding using FACS was carried out under two conditions of pH 6.0 and pH 7.4. hFcRn-expressing 1TEK293 (hFcRn HEK293) cells were diluted with the reaction buffer (0.0500 BSA in PBS, pH 6.0 or pH 7.4) and prepared in duplicate in a 96 well plate at 1×10⁵ cells for each sample. In addition, each antibody sample was diluted with the reaction buffer to 10 nM, and then put into a 96 well plate, and incubated at 4° C. for 90 minutes. Thereafter, the plate was centrifuged to remove the supernatant, and then Alexa488-goat anti-hIgG Ab (1:200) was added thereto, and again incubated at 4° C. for 90 minutes. After the reaction was completed, it was centrifuged to remove the supernatant, and 200 μL of the reaction buffer was added to resuspend the cell pellet, and then the MFI value was measured in a FACS instrument.

Experiment [3] addresses T2, hFcRn on hFcRn-expressing HEK293 cells. The experiment in a line: FACS on hFcRn HEK293 cells, 10 nM antibody, pH 7.4.
Procedure: as §3
Experiment [4] addresses T1, shFcRn (soluble human FcRn). The experiment in a line: SPR, shFcRn immobilized on chip, antibody as analyte, pH 6.0.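 Note: kinetics fitted with a 1:1 Langmuir model, association 200 s and dissociation 600 s, samples diluted in PBST, double-referenced signals, values averaged across three shFcRn-coated cells.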 A general note: SPR reads the build-up and loss of mass on a sensor chip optically.
Procedure: as §1, §2
For experiment [5] the target is unchanged. In words: SPR, shFcRn immobilized on chip, antibody as analyte, pH 7.4.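 Note: kinetics fitted with a 1:1 Langmuir model, association 200 s and dissociation 600 s in PBST, double-referenced against buffer-only and interspot signals, values averaged over repeated runs.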
Procedure: as §1, §2
Experiment [6] deals with T2, hFcRn on hFcRn-expressing HEK293 cells. The experiment in a line: FACS on hFcRn HEK293 cells, 10 nM antibody, pH 6.0, high concentration sample.
Procedure: as §3
Experiment [7] shares this target. The experiment in a line: FACS on hFcRn HEK293 cells, 10 nM antibody, pH 7.4, high concentration sample.
Procedure: as §3
For experiment [8] the target is unchanged. In words: FACS on hFcRn HEK293 cells, pH 6.0; head prints 'FACS binding (EC50, nM)', taken as blocking of competitor Alexa488-hIgG1 (Example 4.5). (In flow cytometry, cells or beads pass a laser one at a time.)
Procedure: (§4) 1×10⁷ hFcRn HEK293 cells were seeded into a T75 flask and cultured for 24 hours. After culturing, the cells were removed and placed in a 96 well plate at 1×10⁵ cells for each sample in duplicate. […] After the reaction was completed, it was centrifuged to remove the supernatant. 200 μL of the reaction buffer was added to resuspend the cell pellet, and then the MFI value was measured in a FACS instrument.
For experiment [9] the target is unchanged. The experiment in a line: FACS on hFcRn HEK293 cells, pH 6.0, high concentration sample; head prints 'FACS binding (EC50, nM)', taken as blocking of competitor Alexa488-hIgG1 (Example 5.5).
Procedure: as §4
The evaluation of hFcRn blocking was performed at 0.1 nM, 1 nM, 10 nM, and 100 nM using FACS.
Experiment [10] has as its target T1, shFcRn (soluble human FcRn). The experiment in a line: SPR, hFcRn immobilized on chip, pH 6.0.
Procedure: as §1, §2

T1 sequence (P55899 24-297 limits assumed, chain 1 of 2): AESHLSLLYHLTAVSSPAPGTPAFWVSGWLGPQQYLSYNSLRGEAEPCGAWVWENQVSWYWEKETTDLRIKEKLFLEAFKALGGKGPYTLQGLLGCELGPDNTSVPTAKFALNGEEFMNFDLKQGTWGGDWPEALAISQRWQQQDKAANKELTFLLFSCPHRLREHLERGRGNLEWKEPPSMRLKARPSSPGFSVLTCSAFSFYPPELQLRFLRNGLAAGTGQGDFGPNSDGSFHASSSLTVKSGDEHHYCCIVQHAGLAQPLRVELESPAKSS
T1 sequence (P61769 21-119 limits assumed, chain 2 of 2): as the sequence (P61769 21-119 limits assumed, chain 2 of 2) above

B1: HL161AN (antibody, human IgG1, V domains shown)
VL: SYVLTQPPSVSVAPGQTARITCGGNNIGSTSVHWYQQKPGQAPVLVVHDDSDRPSGIPERFSGSNSGNTATLTISRVEAGDEADYYCQVRDSSSDHVIFGGGTKLTVLGQPKAAPSVTL
VH: EVQLLESGGGLVQPGGSLRLSCAASEFTFGSCVMTWVRQAPGKGLEWVSVISGSGGSTYYADSVKGRFTISRDNSKNTLYLQMNSLRAEDTAVYYCAKTPWWLRSPFFDYWGQGTLVTVSS
notes: also called HL161AN RS
As to B1, the Kd (in general, a measure of binding affinity in units of concentration) in [1] amounted to 0.27 nM; in experiment [4], 0.116 nM; in experiment [5], 0.294 nM. The MFI in experiment [2] stood at 2720 MFI; in [3], 6150 MFI; in experiment [6] it was 2950 MFI; in experiment [7], 7160 MFI. Also, the EC50 (in general, the concentration needed to bring the measured effect to its halfway point) in experiment [8] amounted to 1.83 nM; in experiment [9], 0.91 nM.

B2: HL161AN variant No. 11 (LC:N25S, HC:C32Y Q82E) (antibody, V domains shown)
VL: SYVLTQPPSVSVAPGQTARITCGGSNIGSTSVHWYQQKPGQAPVLVVHDDSDRPSGIPERFSGSNSGNTATLTISRVEAGDEADYYCQVRDSSSDHVIFGGGTKLTVLGQPKAAPSVTL
VH: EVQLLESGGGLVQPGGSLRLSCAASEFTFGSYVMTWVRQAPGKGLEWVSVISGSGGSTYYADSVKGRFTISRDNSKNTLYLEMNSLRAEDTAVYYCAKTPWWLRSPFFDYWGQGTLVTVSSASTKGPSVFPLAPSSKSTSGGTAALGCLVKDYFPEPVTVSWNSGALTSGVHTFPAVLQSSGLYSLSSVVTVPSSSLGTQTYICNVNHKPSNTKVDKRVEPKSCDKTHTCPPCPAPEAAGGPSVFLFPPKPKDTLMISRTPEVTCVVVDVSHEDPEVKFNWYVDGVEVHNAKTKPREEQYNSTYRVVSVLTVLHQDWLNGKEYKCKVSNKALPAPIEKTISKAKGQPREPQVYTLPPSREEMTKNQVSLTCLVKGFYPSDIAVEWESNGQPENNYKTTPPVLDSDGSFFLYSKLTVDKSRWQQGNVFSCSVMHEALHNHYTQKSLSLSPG
notes: also called HL161ANSYE; copies: 2 + 2
As for B2, the Kd turned out to be 0.14 nM in experiment [10], 0.28 nM in [1], 0.19 nM in experiment [4] and 0.262 nM in experiment [5]. Also, the MFI in experiment [2] was 2580 MFI; in [3], 6320 MFI; in experiment [6] it was 3450 MFI; in [7] it was 6570 MFI. The koff (usually the rate constant with which the complex falls apart) in [4] worked out at 0.000486 s⁻¹; in experiment [5] it was 0.000487 s⁻¹. The on-rate constant (kon) (as a rule, the rate constant with which the complex forms) worked out at 2.56e+06 M⁻¹ s⁻¹ in experiment [4] and 1.86e+06 M⁻¹ s⁻¹ in experiment [5]. Besides, the values for the EC50 in experiment [8] and in experiment [9] were 1.36 nM and 0.62 nM, respectively.

B3: HL161AN variant No. 12 (LC:N25Q, HC:C32S) (antibody, V domains shown)
VL: SYVLTQPPSVSVAPGQTARITCGGQNIGSTSVHWYQQKPGQAPVLVVHDDSDRPSGIPERFSGSNSGNTATLTISRVEAGDEADYYCQVRDSSSDHVIFGGGTKLTVLGQPKAAPSVTL
VH: EVQLLESGGGLVQPGGSLRLSCAASEFTFGSSVMTWVRQAPGKGLEWVSVISGSGGSTYYADSVKGRFTISRDNSKNTLYLQMNSLRAEDTAVYYCAKTPWWLRSPFFDYWGQGTLVTVSS
notes: also called HL161ANQ; #12 (HL161ANQ)
B3: the dissociation constant (Kd) turned out to be 0.18 nM in [10], 0.21 nM in experiment [1], 0.181 nM in experiment [4] and 0.209 nM in [5]. Further, the MFI came out at 2770 MFI in experiment [2], 6940 MFI in experiment [3], 3390 MFI in experiment [6] and 7700 MFI in experiment [7]. Also, the koff in [4] was 0.000549 s⁻¹; in experiment [5] it was 0.000499 s⁻¹. The figures for the on-rate constant (kon) in experiment [4] and in experiment [5] were 3.02e+06 M⁻¹ s⁻¹ and 2.38e+06 M⁻¹ s⁻¹, respectively. Besides, the EC50 is 1.65 nM in [8] and 0.69 nM in experiment [9].

B4: HL161AN variant No. 20 (LC:N25Q, HC:C32Y Q82S) (antibody, human IgG1, V domains shown)
VL: SYVLTQPPSVSVAPGQTARITCGGQNIGSTSVHWYQQKPGQAPVLVVHDDSDRPSGIPERFSGSNSGNTATLTISRVEAGDEADYYCQVRDSSSDHVIFGGGTKLTVLGQPKAAPSVTL
VH: EVQLLESGGGLVQPGGSLRLSCAASEFTFGSYVMTWVRQAPGKGLEWVSVISGSGGSTYYADSVKGRFTISRDNSKNTLYLSMNSLRAEDTAVYYCAKTPWWLRSPFFDYWGQGTLVTVSS
notes: Variable domains only
Turning to B4, the Kd in [10] came out at 0.17 nM; in experiment [1] it was 0.35 nM; in experiment [4], 0.2 nM; in experiment [5] it was 0.283 nM. The MFI in experiment [2] was determined as 2520 MFI; in experiment [3] it was 5840 MFI. For the same molecule, the koff was 0.000509 s⁻¹ in experiment [4] and 0.00056 s⁻¹ in experiment [5]. Besides, the kon in experiment [4] came out at 2.54e+06 M⁻¹ s⁻¹; in [5], 1.98e+06 M⁻¹ s⁻¹. It took 1.16 nM to reach a half-maximal effect in experiment [8] (EC50).

B5: HL161AN variant No. 21 (LC:N25Q, HC:C32Y Q82T) (antibody, human IgG1, V domains shown)
VL: SYVLTQPPSVSVAPGQTARITCGGQNIGSTSVHWYQQKPGQAPVLVVHDDSDRPSGIPERFSGSNSGNTATLTISRVEAGDEADYYCQVRDSSSDHVIFGGGTKLTVLGQPKAAPSVTL
VH: EVQLLESGGGLVQPGGSLRLSCAASEFTFGSYVMTWVRQAPGKGLEWVSVISGSGGSTYYADSVKGRFTISRDNSKNTLYLTMNSLRAEDTAVYYCAKTPWWLRSPFFDYWGQGTLVTVSS
notes: Variable domains only
For the molecule B5, the Kd came to 0.18 nM in [10], 0.3 nM in [1], 0.206 nM in experiment [4] and 0.209 nM in experiment [5]. The MFI in [2] was found to be 2430 MFI; in [3], 6030 MFI. Further, the dissociation rate constant (koff) in experiment [4] was found to be 0.000552 s⁻¹; in experiment [5], 0.000499 s⁻¹. The kon in [4] was found to be 2.67e+06 M⁻¹ s⁻¹; in experiment [5] it was 2.39e+06 M⁻¹ s⁻¹. In experiment [8], the concentration for a half-maximal effect (EC50) came to 1.11 nM.

B6: HL161AN variant No. 19 (LC:N25Q, HC:C32S Q82E) (antibody, V domains shown)
VL: SYVLTQPPSVSVAPGQTARITCGGQNIGSTSVHWYQQKPGQAPVLVVHDDSDRPSGIPERFSGSNSGNTATLTISRVEAGDEADYYCQVRDSSSDHVIFGGGTKLTVLGQPKAAPSVTL
VH: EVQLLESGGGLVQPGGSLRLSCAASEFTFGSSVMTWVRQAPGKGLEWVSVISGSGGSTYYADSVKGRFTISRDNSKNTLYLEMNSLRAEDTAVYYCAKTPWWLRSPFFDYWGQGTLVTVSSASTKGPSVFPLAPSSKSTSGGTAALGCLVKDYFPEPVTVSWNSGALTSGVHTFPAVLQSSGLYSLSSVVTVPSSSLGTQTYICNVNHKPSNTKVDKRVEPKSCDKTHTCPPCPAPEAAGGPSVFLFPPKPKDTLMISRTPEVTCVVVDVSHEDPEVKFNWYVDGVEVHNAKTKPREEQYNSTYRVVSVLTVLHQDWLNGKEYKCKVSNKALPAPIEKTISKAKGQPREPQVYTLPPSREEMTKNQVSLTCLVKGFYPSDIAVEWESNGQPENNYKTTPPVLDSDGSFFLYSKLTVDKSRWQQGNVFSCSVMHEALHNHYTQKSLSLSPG
notes: also called HL161ANQE; copies: 2 + 2
On to B6, for which the values for the Kd in [10], in [1] and in experiment [4] were 0.32 nM, 0.36 nM and 0.275 nM, respectively. Further, the MFI in experiment [2] stood at 2640 MFI; in [3], 6470 MFI; in [6], 3240 MFI; in experiment [7], 7910 MFI. In addition, the koff in [4] was 0.000575 s⁻¹. The same molecule gave a kon in experiment [4] of 2.09e+06 M⁻¹ s⁻¹. Also, the concentration giving a half-maximal response (EC50) in experiment [8] came out at 1.14 nM; in experiment [9], 0.62 nM.

B7: HL161AN variant No. 1 (LC:N25S, HC:C32S) (antibody, V domains shown)
VL: SYVLTQPPSVSVAPGQTARITCGGSNIGSTSVHWYQQKPGQAPVLVVHDDSDRPSGIPERFSGSNSGNTATLTISRVEAGDEADYYCQVRDSSSDHVIFGGGTKLTVLGQPKAAPSVTL
VH: EVQLLESGGGLVQPGGSLRLSCAASEFTFGSSVMTWVRQAPGKGLEWVSVISGSGGSTYYADSVKGRFTISRDNSKNTLYLQMNSLRAEDTAVYYCAKTPWWLRSPFFDYWGQGTLVTVSS
notes: also called HL161ANS; #1 (HL161ANS)
Consider B7, for which the dissociation constant (Kd) amounted to 0.12 nM in experiment [10], 0.12 nM in experiment [1], 0.129 nM in experiment [4] and 0.122 nM in experiment [5]. Moreover, the MFI turned out to be 2720 MFI in experiment [2], 6460 MFI in experiment [3], 3270 MFI in [6] and 6730 MFI in experiment [7]. Moreover, the dissociation rate constant (koff) in experiment [4] came out at 0.000463 s⁻¹; in experiment [5] it was 0.000392 s⁻¹. Also, the figures for the association rate constant (kon) in [4] and in experiment [5] were 3.58e+06 M⁻¹ s⁻¹ and 3.22e+06 M⁻¹ s⁻¹, respectively. The concentration giving a half-maximal response (EC50) in [8] was found to be 1.44 nM; in [9], 0.69 nM.

B8: HL161AN variant No. 2 (LC:N25S, HC:C32Y) (antibody, V domains shown)
VL: SYVLTQPPSVSVAPGQTARITCGGSNIGSTSVHWYQQKPGQAPVLVVHDDSDRPSGIPERFSGSNSGNTATLTISRVEAGDEADYYCQVRDSSSDHVIFGGGTKLTVLGQPKAAPSVTL
VH: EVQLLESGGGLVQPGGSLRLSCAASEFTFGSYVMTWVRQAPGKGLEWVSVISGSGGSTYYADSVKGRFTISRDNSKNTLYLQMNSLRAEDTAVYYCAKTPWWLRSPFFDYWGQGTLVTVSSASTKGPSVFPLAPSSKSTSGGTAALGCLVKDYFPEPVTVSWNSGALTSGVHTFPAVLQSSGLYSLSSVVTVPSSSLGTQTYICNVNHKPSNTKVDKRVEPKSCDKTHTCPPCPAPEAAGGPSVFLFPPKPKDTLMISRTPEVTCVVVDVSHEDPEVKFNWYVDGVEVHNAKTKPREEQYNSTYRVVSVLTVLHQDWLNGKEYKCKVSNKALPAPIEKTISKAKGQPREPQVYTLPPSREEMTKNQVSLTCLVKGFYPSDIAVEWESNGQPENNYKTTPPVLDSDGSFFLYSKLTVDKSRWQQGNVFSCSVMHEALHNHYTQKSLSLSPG
notes: also called HL161ANSY; copies: 2 + 2
In the case of B8, the dissociation constant Kd in experiment [10] worked out at 0.1 nM; in experiment [1], 0.2 nM; in experiment [4], 0.149 nM; in experiment [5], 0.207 nM. Moreover, the MFI in experiment [2] was 2500 MFI; in experiment [3], 6200 MFI; in experiment [6] it was 3410 MFI; in [7] it was 7000 MFI. For the same molecule, the figures for the koff in experiment [4] and in experiment [5] were 0.000433 s⁻¹ and 0.000435 s⁻¹, respectively. Besides, the figures for the on-rate constant (kon) in experiment [4] and in experiment [5] were 2.91e+06 M⁻¹ s⁻¹ and 2.1e+06 M⁻¹ s⁻¹, respectively. Also, the concentration giving a half-maximal response (EC50) amounted to 1.27 nM in [8] and 0.54 nM in experiment [9].

B9: HL161AN variant No. 18 (LC:N25Q, HC:C32S Q82T) (antibody, human IgG1, V domains shown)
VL: SYVLTQPPSVSVAPGQTARITCGGQNIGSTSVHWYQQKPGQAPVLVVHDDSDRPSGIPERFSGSNSGNTATLTISRVEAGDEADYYCQVRDSSSDHVIFGGGTKLTVLGQPKAAPSVTL
VH: EVQLLESGGGLVQPGGSLRLSCAASEFTFGSSVMTWVRQAPGKGLEWVSVISGSGGSTYYADSVKGRFTISRDNSKNTLYLTMNSLRAEDTAVYYCAKTPWWLRSPFFDYWGQGTLVTVSS
notes: Variable domains only
For B9, the Kd in experiment [10] was determined as 0.25 nM; in [1] it was 0.33 nM; in experiment [4], 0.198 nM; in [5], 0.226 nM. Also, the MFI in [2] is 2520 MFI; in experiment [3] it was 6910 MFI. Also, the figures for the koff in experiment [4] and in [5] were 0.000562 s⁻¹ and 0.000542 s⁻¹, respectively. The kon in experiment [4] stood at 2.84e+06 M⁻¹ s⁻¹; in experiment [5], 2.39e+06 M⁻¹ s⁻¹. The molecule further had a concentration for a half-maximal effect (EC50) in experiment [8] of 1.15 nM.
